{"source": "patent US20050276799A1", "about": "(PDL BIOPHARMA, published 2005)", "binders": {"B1": {"name": "Hu1D10-IgG3 wild-type (antibody)", "heavy": "QVQLQESGPGLVKPSETLSLTCTVSGFSLTNYGVHWVRQSPGKGLEWIGVKWSGGSTEYNAAFISRLTISKDTSKNQVSLKLNSLTAADTAVYYCARNDRYAMDYWGQGTLVTVSSASTKGPSVFPLAPCSRSTSGGTAALGCLVKDYFPEPVTVSWNSGALTSGVHTFPAVLQSSGLYSLSSVVTVPSSSLGTQTYTCNVNHKPSNTKVDKRVELKTPLGDTTHTCPRCPEPKSCDTPPPCPRCPEPKSCDTPPPCPRCPEPKSCDTPPPCPRCPAPELLGGPSVFLFPPKPKDTLMISRTPEVTCVVVDVSHEDPEVQFKWYVDGVEVHNAKTKLREEQYNSTFRVVSVLTVLHQDWLNGKEYKCKVSNKALPAPIEKTISKAKGQPREPQVYTLPPSREEMTKNQVSLTCLVKGFYPSDIAVEWESNGQPENNYNTTPPMLDSDGSFFLYSKLTVDKSRWQQGNIFSCSVMHEALHNRYTQKSLSLSPGK", "light": "DIQMTQSPSSLSASVGDRVTITCRASENIYSYLAWYQQKPGKAPKLLVSNAKTLAEGVPSRFSGSGSGKQFTLTISSLQPEDFATYYCQHHYGNSYPFGQGTKLEIKRTVAAPSVFIFPPSDEQLKSGTASVVCLLNNFYPREAKVQWKVDNALQSGNSQESVTEQDSKDSTYSLSSTLTLSKADYEKHKVYACEVTHQGLSSPVTKSFNRGEC"}, "B2": {"name": "Hu1D10-IgG4 M428L (antibody)", "heavy": "not shown", "light": "B1 light"}, "B3": {"name": "Hu1D10-IgG3 M428L (antibody)", "heavy": "B1 heavy with M474L", "light": "B1 light"}, "B4": {"name": "Hu1D10-IgG4 T250Q/M428L (antibody)", "heavy": "not shown", "light": "B1 light"}, "B5": {"name": "Dac-IgG2M3 T250Q/M428L (antibody)", "heavy": "QVQLVQSGAEVKKPGSSVKVSCKASGYTFTSYRMHWVRQAPGQGLEWIGYINPSTGYTEYNQKFKDKATITADESTNTAYMELSSLRSEDTAVYYCARGGGVFDYWGQGTLVTVSSASTKGPSVFPLAPCSRSTSESTAALGCLVKDYFPEPVTVSWNSGALTSGVHTFPAVLQSSGLYSLSSVVTVPSSNFGTQTYTCNVDHKPSNTKVDKTVERKCCVECPPCPAPPAAAPSVFLFPPKPKDQLMISRTPEVTCVVVDVSHEDPEVQFNWYVDGVEVHNAKTKPREEQFNSTFRVVSVLTVVHQDWLNGKEYKCKVSNKGLPAPIEKTISKTKGQPREPQVYTLPPSREEMTKNQVSLTCLVKGFYPSDIAVEWESNGQPENNYKTTPPMLDSDGSFFLYSKLTVDKSRWQQGNVFSCSVLHEALHNHYTQKSLSLSPGK", "light": "DIQMTQSPSTLSASVGDRVTITCSASSSISYMHWYQQKPGKAPKLLIYTTSNLASGVPARFSGSGSGTEFTLTISSLQPDDFATYYCHQRSTYPLTFGQGTKVEVKRTVAAPSVFIFPPSDEQLKSGTASVVCLLNNFYPREAKVQWKVDNALQSGNSQESVTEQDSKDSTYSLSSTLTLSKADYEKHKVYACEVTHQGLSSPVTKSFNRGEC"}, "B6": {"name": "M200-IgG4 wild-type (volociximab) (antibody)", "heavy": "not shown", "light": "QIVLTQSPAIMSASLGERVTMTCTASSSVSSNYLHWYQQKPGSAPNLWIYSTSNLASGVPARFSGSGSGTSYSLTISSMEAEDAATYYCHQYLRSPPTFGGGTKLEIKRTVAAPSVFIFPPSDEQLKSGTASVVCLLNNFYPREAKVQWKVDNALQSGNSQESVTEQDSKDSTYSLSSTLTLSKADYEKHKVYACEVTHQGLSSPVTKSFNRGEC", "notes": "Chimeric anti-α5β1 integrin; also called M200-IgG4 WT"}, "B7": {"name": "M200-IgG4 T250Q/M428L (antibody)", "heavy": "not shown", "light": "B6 light"}, "B8": {"name": "OST577-IgG1 T250D (antibody)", "heavy": "not shown", "light": "SYVLTQPPSVSVAPGQTARITCGGDNIGSKSVNWFQQKPGQAPVLVVYDDNERPSGISERFSGSNSGNTATLTISRVEAGDEADYYCQVWDSSSDHVVFGGGTKLTVLGQPKAAPSVTLFPPSSEELQANKATLVCLISDFYPGAVTVAWKADSSPVKAGVETTTPSKQSNNKYAASSYLSLTPEQWKSHRSYSCQVTHEGSTVEKTVAPTECS"}, "B9": {"name": "HuM291-IgG2M3 wild-type (visilizumab) (antibody)", "heavy": "QVQLVQSGAEVKKPGASVKVSCKASGYTFISYTMHWVRQAPGQGLEWMGYINPRSGYTHYNQKLKDKATLTADKSASTAYMELSSLRSEDTAVYYCARSAYYDYDGFAYWGQGTLVTVSSASTKGPSVFPLAPCSRSTSESTAALGCLVKDYFPEPVTVSWNSGALTSGVHTFPAVLQSSGLYSLSSVVTVPSSNFGTQTYTCNVDHKPSNTKVDKTVERKCCVECPPCPAPPAAAPSVFLFPPKPKDTLMISRTPEVTCVVVDVSHEDPEVQFNWYVDGVEVHNAKTKPREEQFNSTFRVVSVLTVVHQDWLNGKEYKCKVSNKGLPAPIEKTISKTKGQPREPQVYTLPPSREEMTKNQVSLTCLVKGFYPSDIAVEWESNGQPENNYKTTPPMLDSDGSFFLYSKLTVDKSRWQQGNVFSCSVMHEALHNHYTQKSLSLSPSK", "light": "DIQMTQSPSSLSASVGDRVTITCSASSSVSYMNWYQQKPGKAPKRLIYDTSKLASGVPSRFSGSGSGTDFTLTISSLQPEDFATYYCQQWSSNPPTFGGGTKVEIKRTVAAPSVFIFPPSDEQLKSGTASVVCLLNNFYPREAKVQWKVDNALQSGNSQESVTEQDSKDSTYSLSSTLTLSKADYEKHKVYACEVTHQGLSSPVTKSFNRGEC", "notes": "Humanized anti-CD3; also called HuM291-IgG2M3 WT; Nuvion"}, "B10": {"name": "HuM291-IgG2M3 T250Q/M428L (antibody)", "heavy": "B9 heavy with T249Q, M427L", "light": "B9 light"}}, "key": {"[1]": {"molecular_target": "T1, recombinant, GPI-linked rhesus FcRn on cell line NS0 RhFcRn, clone R-3 (rhesus, UniProt H9Z6D2 24-297; Q6V7J5 21-119, GPI-linked)", "T1 construct": "Expressed from pDL410 on the surface of NS0 cells; not shown: human c-myc decapeptide flanked by linker peptides, then GPI linkage signal of human decay accelerating factor (vector p)", "test": "IC50 of wild-type / IC50 of this antibody, same assay"}, "[2]": {"molecular_target": "T2, recombinant, GPI-linked human FcRn on cell line NS0 HuFcRn (memb), clone 7-3 (human, UniProt P55899 24-297; P61769 21-119)", "T2 construct": "Expressed from pDL208 on the surface of NS0 cells; also called human neonatal Fc receptor; not shown: human c-myc decapeptide flanked by linker peptides, then GPI linkage signal of human decay accelerating factor (vector p)", "test": "IC50 of wild-type / IC50 of this antibody, same assay"}, "[3]": {"molecular_target": "T2, recombinant, GPI-linked human FcRn on …", "test": "IC50 of wild-type / IC50 of this antibody, same assay", "remark": "listed apart in the source"}, "[4]": {"molecular_target": "T1, recombinant, GPI-linked rhesus FcRn on …", "test": "competition FACS vs biotinylated human IgG on NS0 cells expressing rhesus FcRn, FBB pH 6.0"}, "[5]": {"molecular_target": "T2, recombinant, GPI-linked human FcRn on …", "test": "competition FACS vs biotinylated human IgG on NS0 cells expressing human FcRn, FBB pH 6.0"}, "[6]": {"molecular_target": "T1, recombinant, GPI-linked rhesus FcRn on …", "test": "IC50 of wild-type / IC50 of this antibody, same assay", "remark": "listed apart in the source"}, "[7]": {"molecular_target": "T2, recombinant, GPI-linked human FcRn on …", "test": "competition FACS vs biotinylated human IgG on NS0 cells expressing human FcRn, FBB pH 6.0", "remark": "listed apart in the source"}, "[8]": {"molecular_target": "T1, recombinant, GPI-linked rhesus FcRn on …", "test": "competition FACS vs biotinylated human IgG on NS0 cells expressing rhesus FcRn, FBB pH 6.0", "remark": "listed apart in the source"}, "[9]": {"molecular_target": "T2, recombinant, GPI-linked human FcRn on …", "test": "IC50 of wild-type / IC50 of this antibody, same assay", "remark": "listed apart in the source"}, "[10]": {"molecular_target": "T2, recombinant, GPI-linked human FcRn on …", "test": "competition FACS vs biotinylated human IgG on NS0 cells expressing human FcRn, FBB pH 6.0", "remark": "listed apart in the source"}, "[11]": {"molecular_target": "T2, recombinant, GPI-linked human FcRn on …", "test": "competition FACS vs biotinylated human IgG on NS0 cells expressing human FcRn, FBB pH 6.0", "remark": "listed apart in the source"}, "[12]": {"molecular_target": "T2, recombinant, GPI-linked human FcRn on …", "test": "IC50 of wild-type / IC50 of this antibody, same assay", "remark": "listed apart in the source"}, "[13]": {"molecular_target": "T2, recombinant, GPI-linked human FcRn on …", "test": "pH-dependent binding and release FACS on NS0 cells expressing human FcRn (FIG. 15B)"}, "[14]": {"molecular_target": "T2, recombinant, GPI-linked human FcRn on …", "test": "competition FACS vs biotinylated human IgG on NS0 cells expressing human FcRn, FBB pH 6.0", "remark": "listed apart in the source"}, "[15]": {"molecular_target": "T2, recombinant, GPI-linked human FcRn on …", "test": "IC50 of wild-type / IC50 of this antibody, same assay", "remark": "listed apart in the source"}}, "note": "Residue numbers refer to the chain shown, from its start. Names may count otherwise. Read-outs that look alike come from different tables or passages of the source.", "data": [{"binder": "B1", "values": [{"measurement": "Relative Binding", "setting": "[1]", "value": 1, "unit": "ratio"}, {"measurement": "Relative Binding", "setting": "[2]", "value": 1, "unit": "ratio"}]}, {"binder": "B2", "values": [{"measurement": "Relative Binding", "setting": "[3]", "value": 15, "unit": "ratio"}, {"measurement": "IC50", "setting": "[4]", "value": 6.64, "unit": "µg/mL"}, {"measurement": "IC50", "setting": "[5]", "value": 5.03, "unit": "µg/mL"}, {"measurement": "Relative Binding", "setting": "[6]", "value": 15, "unit": "ratio"}]}, {"binder": "B3", "values": [{"measurement": "IC50", "setting": "[7]", "value": 2.29, "unit": "µg/mL"}, {"measurement": "Relative Binding", "setting": "[1]", "value": 4.6, "unit": "ratio"}, {"measurement": "IC50", "setting": "[8]", "value": 3.03, "unit": "µg/mL"}, {"measurement": "Relative Binding", "setting": "[2]", "value": 6.3, "unit": "ratio"}]}, {"binder": "B4", "values": [{"measurement": "Relative Binding", "setting": "[3]", "value": 71, "unit": "ratio"}, {"measurement": "IC50", "setting": "[4]", "value": 1.27, "unit": "µg/mL"}, {"measurement": "IC50", "setting": "[5]", "value": 1.07, "unit": "µg/mL"}, {"measurement": "Relative Binding", "setting": "[6]", "value": 77, "unit": "ratio"}]}, {"binder": "B5", "values": [{"measurement": "Relative Binding", "setting": "[9]", "value": 18, "unit": "ratio"}, {"measurement": "IC50", "setting": "[10]", "value": 4.02, "unit": "µg/mL"}]}, {"binder": "B6", "values": [{"measurement": "IC50", "setting": "[11]", "value": 34.7, "unit": "µg/mL"}, {"measurement": "Relative Binding", "setting": "[12]", "value": 1, "unit": "ratio"}]}, {"binder": "B7", "values": [{"measurement": "IC50", "setting": "[11]", "value": 1, "unit": "µg/mL"}, {"measurement": "Relative Binding", "setting": "[12]", "value": 35, "unit": "ratio"}]}, {"binder": "B8", "values": [{"measurement": "binding result", "setting": "[13]", "value": "binds"}]}, {"binder": "B9", "values": [{"measurement": "IC50", "setting": "[14]", "value": 42.2, "unit": "µg/mL"}, {"measurement": "Relative Binding", "setting": "[15]", "value": 1, "unit": "ratio"}]}, {"binder": "B10", "values": [{"measurement": "IC50", "setting": "[14]", "value": 0.994, "unit": "µg/mL"}, {"measurement": "Relative Binding", "setting": "[15]", "value": 42, "unit": "ratio"}]}]}
